Tests used:
[1] = tested on: peripheral blood mononuclear cells of normal donors; assay: BFU-E assay, peripheral blood of normal donors; type: cell-based; details: Homo sapiens, PBMC; in the presence of the three concentrations of HuSCF (10, 100, 1000 ng/ml); read-out: IC50 (fifty percent inhibitory concentration) of zidovudine for BFU-E
Procedure: Peripheral blood mononuclear cells were isolated from leukopaks and peripheral blood using ficoll-hypaque sedimentation followed by extensive washing with Hank's Balance Salt Solution (HBSS). Blood cells were enumerated and viability ascertained by trypan blue dye exclusion.
Assays for BFU-E were performed in a standard protocol using normal human bone marrow as the control. Heparinized blood was diluted with an equal volume of HBSS (GIBCO, Grand Island, N.Y.), layered over Ficol-Paque (Pharmacia, Piscataway, N.J.) and centrifuged at 400 g for 30 minutes at room temperature. Light density cells (s.g. <1.077) were collected and washed twice in HBSS. Cells were resuspended in Iscove's Medium with 10% Fetal Bovine Serum (GIBCO, Grand Island, N.Y.) at a concentration of 1×10^7/ml. […] Erythroid burst colonies were scored after 14 days of culture in a humidified atmosphere containing 5% CO2. Each assay was done in duplicate and colonies with >50 cells present on day 14 with hemoglobinization were scored as BFU-E.
The 50% inhibitory concentration for zidovudine was calculated by expressing the mean of four determinations of BFU-E for each level of zidovudine and huSCF as a percentage of control (no added zidovudine). […] The 50% inhibitory concentration was calculated by interpolation and the value used as the exponent for the base of 10. […]

UT-7 cells = assay: UT-7 ^3H-thymidine uptake assay; type: cell-based, human; details: E. coli derived
Procedure: UT-7 cells are a human megakaryocyte, huGM-CSF responsive cell line obtained from John Adamson, New York Blood Center, New York, N.Y. UT-7 cells were cultured in Iscove's Modified Dulbecco's Medium, 10% FBS, 1× glutamine, 5 \g/ml huGM-CSF. Cells are passaged twice a week at 1×10^5 cells/ml.
Cells were washed twice in phosphate buffered saline (PBS) and resuspended in RPMI medium with 4% FBS and glutamine penicillin streptomycin (GPS) (Irvine Scientific Cat No. 9316 used at 1% volume per volume) at 4×10^4 cells/ml before use. Human SCF along with specific samples were added to 4000 cells/well in 96 well plates and were cultured for 72 hrs. 0.5 uCi/well of ^3H-Thymidine was then added to each plate, plates were harvested and counted 4 hours later.

normal baboons = assay: In vivo activity in normal primates
[2] = biological target: T1, SCF receptor (OCIM1 plasma membrane) (Homo sapiens, UniProt P10721); assay: SCF radioreceptor assay; type: binding; details: E. coli derived
T1 construct: endogenous in cells; host or cells: OCIM1 human erythroleukemic cells, plasma membrane preparation
Procedure: OCIM1 cells, [Papayannopoulou et al., Blood 72:1029–1038 (1988)] are a human erythroleukemic cell line expressing many human SCF receptors per cell. These cells are grown in Iscove's Modified Dulbecco's Medium, 10% FBS, and 1× glutamine and passaged 3 times a week to 1×10^5 cells/ml.
Preparation of the OCIM1 plasma membrane is as follows with all steps performed on ice.
First, 40 T175 flasks of cells were grown-up in OCIM1 culture medium, for a total of 1.9×10^9 […]. The conditioned medium and 1 mM Phenyl Methyl Sulfonyl Fluoride (PMSF) protease inhibitor, was spun down in 8×250 ml tubes at 1000 rpm for 10 minutes at 4° C. Cells were washed with PBS and repelleted in 4×50 ml centrifuge tubes at 1000 rpm for 10 minutes at 4° C. Cells were resuspended in 20 ml ice cold PBS with glucose sodium pyruvate (Gibco Cat #310-4287). The 20 ml cell solution was put into a pre-pressurized, pre-chilled (4° C.) “cell bomb” designed to lyse the cells. Cells were pressurized at 400–650 PSI for 10 minutes to establish equilibrium. When the pressure is released cell lysis occurs.
At this point the cells were checked for the percentage of cell lysis. 90% lysis was common. The cell suspension was resuspended in 80 mls sucrose buffer (0.25M sucrose, 10 mM Tris, 1 mM EDTA in double distilled (dd) H2O, filtered through a 0.45 u filter, pH 7.0) and divided between two 40 ml screwcap tubes. Tubes were spun at 5900 RPM for 10 minutes in a Beckman J2-21 centrifuge, JA-20 rotor at 4° C. The supernatants were saved and spun one more time as above to further remove any unwanted material. Supernatants were saved and distributed equally into 2 nalgene 40 ml centrifuge tubes. These supernatants were centrifuged at 16,000 RPM 4° C. for 30 min. in J2-21 centrifuge, JA-20 rotor. These supernatants were discarded being careful to save pellets. Each pellet was resuspended in sucrose buffer so there were 20 mls per tube in 4×36 ml plastic ultracentrifuge tubes. Using a 20 ml syringe and a large trochar, the solution was carefully underlayered in each tube with ice cold 36% sucrose solution (36.1 g sucrose/100 mls ddH2O), bringing the level of the liquid to within 2 mm of the top of the tube. Without disturbing the interface, each tube was carefully placed into each of […] titanium ultracentrifuge tubes. Tubes were centrifuged at 27,000 RPM, 4° C. for 75 minutes in an ultracentrifuge. These tubes were carefully removed from the rotor and from titanium buckets, placed in a rack with the 36% sucrose interface visible. The membraneous material at the interface was collected with a pasteur pipet and transfered into 2 clean nalgene 40 ml centrifuge tubes. Volume was brought up to 40 mls with ice cold sucrose buffer. Tubes were balanced and centrifuged as before at 5900 RPM in J2-21 centrifuge. […]

control marrow = assay: BFU-E culture of control marrow; type: cell-based, human; details: with EPO
From the text: (§1) Another bone marrow failure disorder which is responsive to SCF is Diamond-Blackfan anemia (DBA) or congenital pure red cell aplasia. This congenital abnormality results in a selective defect in the production of red blood cells and often results in chronic transfusion dependency. […] This pattern of response reflects an intrinsic defect in the receptor for SCF (c-kit) on the progenitor cell. In either case (abnormal production of SCF by the microenvironment or decreased stimulation of the hematopoietic progenitor by SCF) SCF overcomes the block to hematopoiesis which characterizes bone marrow failure syndromes such as DBA.

[3] = tested on: bone marrow from patients with DBA; assay: BFU-E culture of Diamond-Blackfan anemia marrow; type: cell-based, human
From the text: as §1

normal human bone marrow = assay: Human CFU-GM assay; type: cell-based; details: average of triplicate cultures; SCF = COS-1 supernatant 4 days after transfection
human bone marrow = assay: Human bone marrow colony assay; type: cell-based; details: agar colony assay, factors alone or combined
Procedure: The cDNA of human SCF corresponding to amino acids 1–162 obtained by PCR reactions outlined in Example 3D, was expressed in COS-1 cells as described for the rat SCF in Example 4. COS-1 supernatants were assayed on human bone marrow as well as in the murine HPP-CFC and MC/9 assays. […] The culture conditions of the assay were as follows: human bone marrow from healthy volunteers was centrifuged over Ficoll-Hypaque gradients (Pharmacia) and cultured in 2.1% methyl cellulose, 30% fetal calf serum, 6×10^−5 M 2-mercaptoethanol, 2 mM glutamine, ISCOVE'S medium (GIBCO), 20 U/ml EPO, and 1×10^5 cells/ml for 14 days in a humidified atmosphere containing 7% O2, 10% CO2, and 83% N2. Only those colonies of 0.2 mm in size or larger are indicated.
Recombinant human SCF was tested in agar colony assays on human bone marrow in combination with other growth factors as described above.

KG-1 = KG-1 soft agar cloning assay; type: cell-based, human; details: 50 μl assayed (5 ng/ml)
Procedure: Another activity of recombinant human SCF is the ability to cause proliferation in soft agar of the human acute myelogenous leukemia (AML) cell line, KG-1 (ATCC CCL 246). COS-1 supernatants from transfected cells were tested in a KG-1 agar cloning assay [Koeffler et al., Science, 200, 1153–1154 (1978)] essentially as described except cells were plated at 3000/ml.

HIV = details: other studies; cited from earlier work
Lewis rats = assay: SCF and G-CSF in Lewis rats; type: in vivo, rat
Procedure: Quantitative peripheral blood and bone marrow differentials were performed at various timepoints as previously described [Hulse, Acta Haematol. […] J. Physiol. […] Histologic examination of the spleen was performed with Bouin's-fixed paraffin-embedded sections stained with hematoxylin-and-eosin as well as by the Giemsa method. The numbers of normoblasts, megakaryocytes, and mast cells per 400× or 1000× high power field (HPF) in the spleen was quantitated by counting the number of each cell type in randomly selected fields of the red pulp. Increases in circulating numbers of neutrophils over extended time periods were when so stated calculated by planimetry as previously described. […] Data is expressed as the mean plus-or-minus one standard deviation and statistical analysis is by the unpaired t-test.

[4] = tested on: dog with cyclic neutropenia; assay: Canine cyclic neutropenia; type: in vivo; details: rcanineSCF 100 mg/kg/day s.c. over several weeks
Procedure: Cyclic neutropenia, in particular, is a defect in the regulation of stem cell division since other lineages (e.g., platelet, erythrocyte and monocyte) are also effected. […] A typical dog with cyclic neutropenia was treated with rcanineSCF (recombinant canine SCF) at […] subcutaneously over several weeks. […] Thus, SCF is useful in treating a variety of bone marrow failure syndromes, either alone or in combination with other hematopoietic growth factors.

[5] = 6 hours after a single injection

For Cc1cn([C@H]2C[C@H](N=[N+]=[N-])[C@@H](CO)O2)c(=O)[nH]c1=O [zidovudine], the IC50 [1] was 2.65 to 1380 µM.

In the case of “Human SCF^1-165: recombinant human [Met^−1]SCF^1-165 expressed in E. coli”, the “stimulation of UT-7 proliferation, comparison” value (UT-7 cells) is reported as “equally active”, the “in vivo biological activity in primates compared with human SCF^1-164” value (normal baboons) is reported as “same in vivo biological activity” and the “competition with binding of human [^125I][Met^−1]SCF^1-164” value [2] is reported as “compete equally well”.

With “SCF: stem cell factor added to DBA and control marrow cultures; form not specified” the “increase in frequency of BFU-E” value (control marrow) was 1.5 fold, the “increase in the frequency of BFU-E” value ([3]; majority of patients, ≤10 ng/ml SCF, with EPO) was “approximately 3 fold” and the “SCF concentration giving an increase in the frequency of BFU-E” value ([3]; other group of patients with DBA) was “greater than or equal to 50 ng/ml”.

For “GM-CSF: human granulocyte-macrophage colony stimulating factor”, the “Colony #/100,000 cells (±SEM)” value (normal human bone marrow) was 7 ± 1, the “Colony #/10^5 cells (14 Days)” value (human bone marrow) was 14 ± 2 and the “Colony #/3000 Cells ± SD” value (KG-1) was 14 ± 5. The “replication of HIV in partially purified primary peripheral blood monocytes” value (HIV) was “significantly increase replication of HIV”.

B1: G-CSF: human granulocyte colony-stimulating factor (protein, UniProt P09919 31-207, looked up)
Granulocyte …: TPLGPASSLPQSFLLKCLEQVRKIQGDGAALQEKLVSECATYKLCHPEELVLLGHSLGIPWAPLSSCPSQALQLAGCLSQLHSGLFLYQGLLQALEGISPELGPTLDTLQLDVADFATTIWQQMEELGMAPALQPTQGAMPAFASAFQRRAGGVLVASHLQSFLEVSYRVLRHLAQP
With B1 the “time of peak neutrophilia after a single injection” value (Lewis rats; 25 ug/rat i.v.) was 12 h, the “decrease in mature marrow neutrophils vs carrier control” value (Lewis rats; [5]) was 44% and the mature marrow neutrophils (Lewis rats; [5]) was 5.55±0.5 ×10^6 PMN/humerus. For the same molecule, the “myeloblasts and promyelocytes in marrow vs carrier controls” value (Lewis rats; 6 hours after single injection) was “significant increase in myeloblasts and promyelocytes”, the “mature neutrophils in bone marrow” value (Lewis rats; 24 hours after daily injection for one week) was 28.5±2.1 ×10^6 PMN/humerus and the circulating neutrophils (Lewis rats; daily 25 ug/rat for one week, 24 hours after the last injection) was 10.6±3.6 ×10^3 PMN/mm^3. The morbidity and thrombocytopenia (Lewis rats; daily for one week) was “None of the rats”, the circulating neutrophils (Lewis rats; daily for one week, 12 hours after the last (seventh) injection) was 25.3±0.3 ×10^3 PMN/mm^3 and the “number of megakaryocytes in the spleen” value (Lewis rats; per 400× HPF, daily for one week) was 2.0±1.1. The “number of normoblasts in the spleen” value (Lewis rats; per 1,000× HPF, daily for one week) was 0±0, the “Colony #/100,000 cells (±SEM)” value (normal human bone marrow) was 24 ± 1 and the “Colony #/10^5 cells (14 Days)” value (human bone marrow) was 32 ± 3. For the same molecule, the neutrophil cycling [4] was “increases the frequency and amplitude of neutrophil cycling, but does not eliminate it”.

From patent US7144731B2, “SCF antibody compositions and methods of using the same” (Amgen Inc., priority 1989, dated 2006)
